The source of these data is US20230012428A1 (JIANGSU HENGRUI MEDICINE, published 2023).

Where two headings read alike, the source gives them in different places.

Assay [1] has as its target T1, PD-L1-Fc (prepared in-house) (human, UniProt Q9NZQ7 19-238, limits assumed).
T1 construct: Prepared in-house; also called human PD-L1-Fc; not shown: Fc
The experiment in a line: blocking ELISA, PD-L1-Fc coated, competitor biotin-labeled PD-1. For orientation: An ELISA detects its analyte on a solid surface through an enzyme-linked reagent.

For assay [2], the target named is T2, natural CD47 on the surface of human red blood cells (human, UniProt Q08722 19-323).
T2 construct: whole, on cells; also called CD47 on the surface of red blood cells
The experiment in a line: flow cytometry on human red blood cells, 10 µg/ml, Alexa 488 goat anti-human IgG secondary antibody, geometric mean. A general note: A flow cytometer gives signals particle by particle.

For assay [3], the target named is T1, PD-L1-Fc (prepared in-house). Description: blocking ELISA, PD-L1-Fc coated, competitor biotin-labeled B7-1.
In assay [4] the target is T3, hPD-L1-His (human, UniProt Q9NZQ7 19-239).
T3 construct: Bought; also called Human PD-L1-his; Human PD-L1; not shown: His tag
The experiment in a line: SPR (Biacore T200), binder captured on Protein A chip, antigen in flow.

Assay [5] has as its target T4, mPD-L1 (mouse, UniProt Q9EP73 19-238).
T4 construct: Bought; also called Mouse PD-L1-his; Mouse PD-L1
Described as above.

For assay [6], the target named is T5, Cyno PD-L1-His (cyno, UniProt G7PSE7 19-239).
T5 construct: Bought; not shown: His tag
The description is as above.

Assay [7] concerns the target T3, hPD-L1-His. The experiment in a line: ELISA, PD-L1-his coated on plate.
Assay [8] concerns the target T4, mPD-L1. The experiment in a line: ELISA, PD-L1-his coated on plate.
For assay [9], the target named is T5, Cyno PD-L1-His. Description: ELISA, PD-L1-his coated on plate.
The target of assay [10] is T6, Cyno CD47-his (cyno, UniProt A0A2K5X523 19-139).
T6 construct: extracellular domain; not shown: His tag
Description: ELISA, CD47-his coated on plate.

In assay [11] the target is T7, Human CD47-his (CD47-ECD-His) (human, UniProt Q08722 19-139, limits assumed).
T7 construct: also called hCD47; free human CD47 protein
The experiment in a line: ELISA, CD47-his coated on plate.

Assay [12] deals with T6, Cyno CD47-his. The experiment in a line: SPR (Biacore T200), binder captured on Protein A chip, antigen in flow. In general terms: In SPR one partner is held on a chip, and binding of the other changes the refractive index at the surface.
The target in assay [13] is T7, Human CD47-his (CD47-ECD-His). The description is as above.
Assay [14] has as its target T8, CD47 extracellular domain and human IgG1Fc fusion protein (CD47-ECD-Fc) (human).
T8 construct: also called CD47-Fc
The experiment in a line: blocking ELISA, CD47-Fc coated, competitor biotin-labeled SIRPα-his.

The target of assay [15] is T6, Cyno CD47-his. Description: ELISA, CD47-his coated on plate. This is another data set of the same source.
The target of assay [16] is T7, Human CD47-his (CD47-ECD-His). The experiment in a line: ELISA, CD47-his coated on plate. The source holds these as a separate data set.

B1: Anti PD-L1 IgG4 antibody h1830 (antibody, V domains shown)
VH: QVQLQESGPGLVKPSQTLSLTCTVSGGSISDGSAYWSWIRQHPGKGLEYIGFISRAGSTYNTPSLKGRVTISRDTSKNQFSLKLSSVTAADTAVYYCARSGGWLAPFDYWGRGTLVTVSS
VL: DIVMTQSPDSLAVSLGERATINCKSSQSLFYHSNQKHSLAWYQQKPGQPPKLLIYGASTRESGVPDRFSGSGSGTDFTLTISSLQAEDVAVYYCQQYYGYPYTFGGGTKVEIKR
notes: also called PD-L1 monoclonal antibody h1830
As usually defined, the IC50 is the point on the concentration scale where inhibition reaches its midpoint. Higher therefore signals a need for much substance. In general, Kd refers to the concentration at which binding is half-saturated. In general, EC50 refers to the concentration giving half of the maximal effect. A low value points to an effect from little substance. On to B1, for which the IC50 amounted to 0.035 µg/mL in assay [1] and 0.0752 µg/mL in assay [3]. For the same molecule, in assay [2], the binding result is given as “no binding (tested: 10 µg/ml)”. For the same molecule, the Kd is 0.466 nM with hPD-L1-His [4], 97.5 nM with mPD-L1 [5] and 0.498 nM with Cyno PD-L1-His [6]. The half-maximal effective concentration (EC50) was found to be 0.131 µg/mL with hPD-L1-His [7], 0.0289 µg/mL with mPD-L1 [8] and 0.23 µg/mL in the assay with Cyno PD-L1-His [9].

B2: Anti-CD47 antibody Hu167-IgG4 AA (antibody, V domains shown)
VH: QVQLVQSGAEVKKPGASVKVSCKASGYTFTSYWMHWVRQAPGQGLEWMGNIDPSDSETHYNQKFKDRVTMTRDTSISTAYMELSRLRSDDTAVYYCARWGYLGRSAMDYWGQGTTVTVSS
VL: DVQITQSPSSLSASVGDRVTITCRTSKSISKFLAWYQQKPGKAPKLLIYSGSTLQSGVPSRFSGSGSGTDFTLTISSLQPEDFATYYCQQHNEYPWTFGGGTKVEIKR
notes: Control antibody, prepared according to WO2018095428A1; also called Hul67 IgG4AA
Turning to B2, the figures for the half-maximal effective concentration (EC50) (with Cyno CD47-his [10]; in assay [11]) were 0.0317 µg/mL and 0.0703 µg/mL, respectively. Moreover, the Kd in the assay with Cyno CD47-his [12] came out at 1.09 nM; in assay [13], 0.653 nM.

B3: h1831-19-S58 (bispecific antibody, human IgG4 S228P, kappa)
heavy: not shown
light: DIVLTQSPASLAVSPGQRATITCRASESVSIHGTHLMHWYQQKPGQPPKLLIYAASNLESGVPARFSGSGSGTDFTLTINPVEAEDTANYYCQQSFEDPLTFGQGTKLEIKRTVAAPSVFIFPPSDEQLKSGTASVVCLLNNFYPREAKVQWKVDNALQSGNSQESVTEQDSKDSTYSLSSTLTLSKADYEKHKVYACEVTHQGLSSPVTKSFNRGEC
notes: Anti-PD-L1 IgG4 antibody h1831 with SIRPγ variant S58, GS19 linker; also called PD-L1-CD47 bifunctional fusion protein
As for B3, the IC50 in assay [1] came out at 0.122 µg/mL; in assay [3], 0.16 µg/mL. Besides, the EC50 with Cyno CD47-his [10] was found to be 0.06 µg/mL; in [11], 0.0469 µg/mL; with hPD-L1-His [7], 0.0947 µg/mL; with Cyno PD-L1-His [9] it was 0.237 µg/mL. Moreover, the Kd with hPD-L1-His [4] amounted to 0.0825 nM; with Cyno CD47-his [12], 1.94 nM; in [13], 1.77 nM; with Cyno PD-L1-His [6], 0.0891 nM. Also, the binding result with mPD-L1 [5] is recorded as “no binding”.

B4: h1831K-19-S37 (bispecific antibody, human IgG4 S228P, kappa)
heavy: not shown
light: DIVLTQSPASLAVSPGQRATITCRASESVSIHGTHLMHWYQQKPGQPPKLLIYAASKLESGVPARFSGSGSGTDFTLTINPVEAEDTANYYCQQSFEDPLTFGQGTKLEIKRTVAAPSVFIFPPSDEQLKSGTASVVCLLNNFYPREAKVQWKVDNALQSGNSQESVTEQDSKDSTYSLSSTLTLSKADYEKHKVYACEVTHQGLSSPVTKSFNRGEC
notes: h1831K IgG4 (h1831 with light chain N53K) with SIRPγ variant S37, GS19 linker; also called h831K-19-S37; PD-L1-CD47 bifunctional fusion protein
Regarding B4, the IC50 in assay [14] was 0.252 µg/mL. The concentration for a half-maximal effect (EC50) with Cyno CD47-his [15] came out at 0.033 µg/mL; in assay [16], 0.0609 µg/mL; with hPD-L1-His [7] it was 0.046 µg/mL; with Cyno PD-L1-His [9], 0.0972 µg/mL. Also, the Kd with hPD-L1-His [4] came to 0.0563 nM; with Cyno CD47-his [12] it was 1.48 nM; in [13], 1.25 nM; in the assay with Cyno PD-L1-His [6], 0.0493 nM. Further, the binding result with mPD-L1 [5] was “no binding”.

B5: h1831-19-S37 (bispecific antibody, human IgG4 S228P, kappa)
heavy: not shown
light: DIVLTQSPASLAVSPGQRATITCRASESVSIHGTHLMHWYQQKPGQPPKLLIYAASNLESGVPARFSGSGSGTDFTLTINPVEAEDTANYYCQQSFEDPLTFGQGTKLEIKRTVAAPSVFIFPPSDEQLKSGTASVVCLLNNFYPREAKVQWKVDNALQSGNSQESVTEQDSKDSTYSLSSTLTLSKADYEKHKVYACEVTHQGLSSPVTKSFNRGEC
notes: h1831 IgG4 with SIRPγ variant S37, GS19 linker; also called PD-L1-CD47 bifunctional fusion protein
With B5, the Kd in the assay with hPD-L1-His [4] worked out at 0.0529 nM; with Cyno CD47-his [12], 1.39 nM; in assay [13], 1.16 nM; with Cyno PD-L1-His [6], 0.0471 nM. Besides, the binding result in the assay with mPD-L1 [5] is “no binding”.

B6: h1831-19-S79 (bispecific antibody, human IgG4 S228P, kappa)
heavy: not shown
light: DIVLTQSPASLAVSPGQRATITCRASESVSIHGTHLMHWYQQKPGQPPKLLIYAASNLESGVPARFSGSGSGTDFTLTINPVEAEDTANYYCQQSFEDPLTFGQGTKLEIKRTVAAPSVFIFPPSDEQLKSGTASVVCLLNNFYPREAKVQWKVDNALQSGNSQESVTEQDSKDSTYSLSSTLTLSKADYEKHKVYACEVTHQGLSSPVTKSFNRGEC
notes: h1831 IgG4 with SIRPγ variant S79, GS19 linker; also called PD-L1-CD47 bifunctional fusion protein
On to B6, for which the figures for the IC50 in assay [1] and in [3] were 0.0723 µg/mL and 0.113 µg/mL, respectively. Moreover, the Kd with hPD-L1-His [4] was 0.0874 nM; in the assay with Cyno CD47-his [12], 4.63 nM; in assay [13], 3.83 nM; in the assay with Cyno PD-L1-His [6], 0.121 nM. Besides, the binding result with mPD-L1 [5] was “no binding”. For the same molecule, the concentration for a half-maximal effect (EC50) with hPD-L1-His [7] came to 0.0976 µg/mL; with Cyno PD-L1-His [9], 0.214 µg/mL.

B7: Anti-CD47 antibody hu5F9 (antibody, human IgG4 S228P, kappa, V domains shown)
VH: QVQLVQSGAEVKKPGASVKVSCKASGYTFTNYNMHWVRQAPGQRLEWMGTIYPGNDDTSYNQKFKDRVTITADTSASTAYMELSSLRSEDTAVYYCARGGYRAMDYWGQGTLVTVSS
VL: DIVMTQSPLSLPVTPGEPASISCRSSQSIVYSNGNTYLGWYLQKPGQSPQLLIYKVSNRFSGVPDRFSGSGSGTDFTLKISRVEAEDVGVYYCFQGSHVPYTFGQGTKLEIKR
notes: Control antibody
B7 came in with a 50% inhibitory concentration (IC50) in assay [14] of 0.263 µg/mL.

B8: PD-L1 antibody h1831 (antibody, human IgG4 S228P, kappa, V domains shown)
VH: QVQLVQSGAEVKKPGASVKVSCKASGYTFTSYWMHWVRQAPGQGLEWMGRITPSSGFAMYNEKFKNRVTMTRDTSTSTVYMELSSLRSEDTAVYYCARGGSSYDYFDYWGQGTTVTVSS
VL: DIVLTQSPASLAVSPGQRATITCRASESVSIHGTHLMHWYQQKPGQPPKLLIYAASNLESGVPARFSGSGSGTDFTLTINPVEAEDTANYYCQQSFEDPLTFGQGTKLEIKR
With B8, the IC50 was found to be 0.0266 µg/mL in [1] and 0.0494 µg/mL in assay [3]. The binding result in [2] is recorded as “no binding (tested: 10 µg/ml)”; with mPD-L1 [5] it was “no binding”. Also, the values for the Kd with hPD-L1-His [4] and with Cyno PD-L1-His [6] were 0.0806 nM and 0.0919 nM, respectively. The figures for the EC50 with hPD-L1-His [7] and with Cyno PD-L1-His [9] were 0.129 µg/mL and 0.222 µg/mL, respectively.

B9: HRP00052 (antibody, V domains shown)
VH: QVQLVQSGAEVKKPGASVKVSCKASGYTFTSYWMHWVRQAPGQGLEWMGRIGPNSGFTSYNEKFKNRVTMTRDTSTSTVYMELSSLRSEDTAVYYCARGGSSYDYFDYWGQGTTVTVSS
VL: DIVLTQSPASLAVSPGQRATITCRASESVSIHGTHLMHWYQQKPGQPPKLLIYAASNLESGVPARFSGSGSGTDFTLTINPVEAEDTANYYCQQSFEDPLTFGQGTKLEIKR
In the case of B9, the IC50 stood at 0.032 µg/mL in assay [1] and 0.0307 µg/mL in assay [3]. Moreover, the dissociation constant Kd in the assay with hPD-L1-His [4] turned out to be 0.144 nM; in the assay with Cyno PD-L1-His [6] it was 0.151 nM. Moreover, the EC50 amounted to 0.163 µg/mL with hPD-L1-His [7] and 0.196 µg/mL with Cyno PD-L1-His [9].
